Publication PMC3089910 (Analytical biochemistry, 2010)

Key:
[1] = biological target: the molecule itself; assay: AUC
[2] = biological target: human lactoferrin (hLF), iron-free, in the presence of Zn2+ (human); assay: AUC

B1: rTp34, Tp34 from Treponema pallidum, in the presence of Zn2+ (natural protein)
chain: CGGGGEHQHGEEMMAAVPAPDAEGAAGFDEFPIGEDRDVGPLHVGGVYFQPVEMHPAPGAQPSKEEADCHIEADIHANEAGKDLGYGVGDFVPYLRVVAFLQKHGSEKVQKVMFAPMNAGDGPHYGANVKFEEGLGTYKVRFEIAAPSHDEYSLHIDEQTGVSGRFWSEPLVAEWDDFEWKGPQW
- stoichiometry N [1]: 2
- stoichiometry N [2]: 2
